Eight molecules from PMC11457862, “Engineered cytokine/antibody fusion proteins improve IL-2 delivery to pro-inflammatory cells and promote antitumor activity” (JCI Insight, 2024) can be followed below.

Assay [1] addresses T1, biotinylated human IL-2 (amino acids 1-133, C-terminal biotin acceptor peptide) (human, UniProt P60568, biotin on the biotin acceptor peptide (BirA ligase)).
T1 construct: also called immobilized IL-2; hIL-2; source: HEK 293F, purified (Ni-NTA, biotinylated with BirA, SEC)
The experiment in a line: BLI; same set-up as a3; equilibrium titration, first-order fit (Supplemental Figure 4A-C, Supplemental Table 4). The note with it: both partners purified.

Assay [2] deals with T1, biotinylated human IL-2 (amino acids …). The experiment in a line: BLI; same set-up as a1; equilibrium titration of the response at the end of the association phase, first-order fit (Figures 2 and 3, Supplemental Table 1). Conditions: both partners purified.
The target is the same in assay [3]. The experiment in a line: BLI; biotinylated human IL-2, IL-2Rα or IL-2Rβ on streptavidin tips (Octet Red96); soluble analyte in PBSA (PBS pH 7.2, 0.1% BSA), 300 s association; kinetic fit, 1:1 binding model; IL-2/602 Cx 2:1 by the legend (Supplemental Figure 2, Supplemental Table 1). Conditions: both partners purified. A general note: Biolayer interferometry detects binding as a change in optical thickness at a sensor tip.

Assay [4] deals with T2, biotinylated mouse IL-2Rα (Mus musculus, UniProt P01590, biotin).
T2 construct: mouse IL-2 receptor alpha; the supplementary methods describe only the human constructs; probably an ectodomain with BAP like them; also called mIL-2Rα
T2 sequence (P01590 22-268): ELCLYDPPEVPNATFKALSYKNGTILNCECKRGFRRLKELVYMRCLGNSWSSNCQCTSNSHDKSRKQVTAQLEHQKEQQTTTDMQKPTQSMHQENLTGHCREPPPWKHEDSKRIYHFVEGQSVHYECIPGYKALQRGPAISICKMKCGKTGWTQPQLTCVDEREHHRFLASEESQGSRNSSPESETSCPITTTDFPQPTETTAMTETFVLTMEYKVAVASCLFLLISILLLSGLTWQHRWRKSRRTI
The experiment in a line: BLI; same set-up as a7; equilibrium titration, first-order fit (Supplemental Figure 6G,H, Supplemental Table 1). Conditions: both partners purified.

Assay [5] deals with T3, biotinylated mouse IL-2Rβ (Mus musculus, UniProt P16297, biotin).
T3 construct: mouse IL-2 receptor beta; the supplementary methods describe only the human constructs; probably an ectodomain with BAP like them; also called mIL-2Rβ
T3 sequence (P16297 27-539): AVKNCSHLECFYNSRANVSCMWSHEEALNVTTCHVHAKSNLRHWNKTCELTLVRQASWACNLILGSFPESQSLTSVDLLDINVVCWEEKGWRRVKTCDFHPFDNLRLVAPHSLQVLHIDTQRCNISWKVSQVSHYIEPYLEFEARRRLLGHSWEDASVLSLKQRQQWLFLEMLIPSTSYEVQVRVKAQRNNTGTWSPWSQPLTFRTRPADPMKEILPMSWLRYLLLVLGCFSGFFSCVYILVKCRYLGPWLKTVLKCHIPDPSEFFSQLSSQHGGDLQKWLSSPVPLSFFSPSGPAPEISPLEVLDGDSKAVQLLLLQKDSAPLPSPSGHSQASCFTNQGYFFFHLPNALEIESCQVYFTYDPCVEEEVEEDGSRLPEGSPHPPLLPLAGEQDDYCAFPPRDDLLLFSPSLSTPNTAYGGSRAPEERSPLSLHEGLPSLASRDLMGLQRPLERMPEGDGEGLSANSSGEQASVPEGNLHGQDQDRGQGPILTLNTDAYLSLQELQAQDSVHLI
Described as above. The note with it: both partners purified.

Assay [6] concerns the target T1, biotinylated human IL-2 (amino acids …). The assay can be described thus: BLI; biotinylated human IL-2 or IL-2Rβ on streptavidin tips; engineered 602 IC variants and controls in PBSA; kinetic fit, 1:1 binding model (Supplemental Figure 5, Supplemental Table 4). The note with it: both partners purified.
Assay [7] has the same target. The experiment in a line: flow cytometry on cells; yeast displaying scFv incubated with 5 nM biotinylated IL-2 and titrated IL-2Rα in PBE buffer, 2 h, room temperature; detected with Alexa Fluor 647 streptavidin. Conditions: one partner purified. (In general: In flow cytometry, cells or beads pass a laser one at a time.)
The target is the same in assay [8]. The assay can be described thus: BLI; same set-up as a5; equilibrium titration, first-order fit (Supplemental Figure 6C,D, Supplemental Table 5). Conditions: both partners purified.
Assay [9] shares this target. The assay can be described thus: BLI; biotinylated human IL-2 on streptavidin tips; scFvs, IL-2/antibody complexes (2:1) and ICs in PBSA; kinetic fit, 1:1 binding model (Supplemental Figure 6A,B, Supplemental Table 5). Conditions: both partners purified.
Assay [10] concerns the target T4, human IL-2 (human, UniProt P60568).
T4 construct: Used soluble, immobilised on BLI tips and in the crystals; also called hIL-2; interleukin-2
The assay can be described thus: BLI; scFvs with IL-2, kinetics; who was immobilised is not told in what was shown. The note with it: both partners purified.

Substitutions are numbered along the chain they refer to. Names may count otherwise.

B1: anti-human IL-2 antibody 602 (MAB602), recombinant mouse IgG2a kappa (antibody, V domains shown)
VH: EVQLQESGPGLVAPSQSLSITCTVSGFSLTNYDISWIRQPPGKGLEWLGVIWTGGGTNYNSGFMSRLSITKDNSKSQVFLKMNSLQTDDTAIYYCVRQGRTPYWGQGTLVTVSA
VL: DIQVTQSPSSLSVSLGDRVTITCKASKDIYNRLAWYQQKPGNAPRLLISGATSLETGVPSRFSGSGSGKDYTLTITSLQTEDVATYYCQQFWGTPYTFGGGTKLEIK
notes: mouse IgG2a heavy chain constant region; mouse kappa light chain constant region; mouse IgG2a kappa; source: HEK 293F, transient co-transfection, purified (Protein G, SEC); copies: 2 + 2
Broadly, the Kd is the equilibrium constant for the complex coming apart. A higher Kd goes with lower affinity. In general, koff refers to a measure of how fast the partners let go of each other. The kon is the second-order rate constant of association. Read a high kon as faster complex formation. B1: the Kd is 3.7 ± 7.4 nM in assay [1]; 6.3 ± 5.2 nM in assay [2]; 0.13 ± 0.02 nM in [3]; > 10000 nM in [4]; > 10000 nM in assay [5]; 0.044 ± 0.05 nM in assay [6]. Besides, the koff came to 5.1e-05 s⁻¹ in assay [3] and 2.8e-05 s⁻¹ in [6]. In addition, the kon in [3] came to 382000 M⁻¹ s⁻¹; in assay [6], 642000 M⁻¹ s⁻¹.

B2: yeast-displayed 602 scFv variant A8 (scFv, V domains shown)
VH: B1 VH
VL: B1 VL with G93D, T97S
notes: also called A8 scFv; not shown: Aga2, N-terminal, kept
With B2, the binding result in assay [7] was “binds”.

B3: F10 scFv (VH-[G4S]3-VL), soluble (scFv, V domains shown)
VH: B1 VH with T101S
VL: B1 VL with F91S, G93D
notes: the scFv chain of PDB 8SOW; source: HEK 293F, purified (Ni-NTA, SEC)
The molecule B3 came in with an equilibrium dissociation constant (Kd) in [8] of 6.12 ± 5.66 nM. Moreover, in assay [9], binding was characterised by a dissociation constant (Kd) of 0.34 ± 0.01 nM, the koff stood at 0.000188 s⁻¹ and the kon was found to be 563000 M⁻¹ s⁻¹.

B4: yeast-displayed 602 scFv variant H2 (scFv, V domains shown)
VH: B1 VH with T101S
VL: B1 VL with Y30H, F91V
notes: also called H2 scFv; not shown: Aga2, N-terminal, kept
As for B4, the binding result in assay [7] is on record as “binds”.

B5: F10 scFv (scFv, V domains shown)
VH: B1 VH with T101S
VL: B1 VL with F91S, G93D
notes: as the scFv of m13 with the stated changes; numbers count on the scFv (T99S in CDR3H, F91S and G93D in CDR3L, Kabat); soluble scFv used for BLI and for the crystal structure; also called variant F10
Take B5: in assay [10], the “fold reduction in dissociation rate against 602 scFv” value is 3.6 fold.

B6: 602 scFv (VH-[G4S]3-VL), soluble (scFv, V domains shown)
VH: B1 VH
VL: B1 VL
notes: the scFv chain of PDB 8SOZ; source: HEK 293F, purified (Ni-NTA, SEC)
With B6, in assay [8], the dissociation constant Kd stood at 9 ± 8.59 nM. Besides, in assay [9], the Kd came to 1.94 ± 0.02 nM, the koff came to 0.00067 s⁻¹ and the kon was 361000 M⁻¹ s⁻¹.

B7: yeast-displayed 602 scFv variant E10 (scFv, V domains shown)
VH: B1 VH with T101A
VL: B1 VL with F91L
notes: also called E10 scFv; not shown: Aga2, N-terminal, kept
As for B7, the binding result in assay [7] is listed as “binds”.

B8: yeast-displayed 602 scFv variant C5 (scFv, V domains shown)
VH: B1 VH
VL: B1 VL with F91T
notes: also called C5 scFv; not shown: Aga2, N-terminal, kept
In the case of B8, in assay [7], the binding result is “binds”.
